In doi:10.1101/553800:

Biological target: hRIO2(1-321)Δ(131-146) (human) (UniProt Q9BVS4)
Assay: AUC

- percent dimer at 27 μM: > 20%
- stoichiometry N: 2
Substance: hRIO2(1-321)Δ(131-146) (from UniProt Q9BVS4 1-321) (domain or fragment)
